Among the targets are human 5HT1E receptor (human, UniProt P28566 1-365); mouse 5HT5B receptor (mouse, UniProt P31387 1-370); mouse 5HT5A receptor (mouse, UniProt P30966 1-357); human 5HT1D receptor (human, UniProt P28221 1-377); human 5HT4 receptor (human, UniProt Q13639 1-388); human 5HT6 receptor (human, UniProt P50406 1-440); human MCH receptor (human, UniProt Q99705 1-353); human Y4 receptor (human, UniProt P50391 1-375).

What all share (assay): cell-based or functional assay
Experiment [1] addresses human dopamine D3 receptor (human, UniProt P35462 1-400).
The target of experiment [2] is T1, human α2C adrenergic receptor (human, UniProt P18825 1-462).
T1 sequence (looked up): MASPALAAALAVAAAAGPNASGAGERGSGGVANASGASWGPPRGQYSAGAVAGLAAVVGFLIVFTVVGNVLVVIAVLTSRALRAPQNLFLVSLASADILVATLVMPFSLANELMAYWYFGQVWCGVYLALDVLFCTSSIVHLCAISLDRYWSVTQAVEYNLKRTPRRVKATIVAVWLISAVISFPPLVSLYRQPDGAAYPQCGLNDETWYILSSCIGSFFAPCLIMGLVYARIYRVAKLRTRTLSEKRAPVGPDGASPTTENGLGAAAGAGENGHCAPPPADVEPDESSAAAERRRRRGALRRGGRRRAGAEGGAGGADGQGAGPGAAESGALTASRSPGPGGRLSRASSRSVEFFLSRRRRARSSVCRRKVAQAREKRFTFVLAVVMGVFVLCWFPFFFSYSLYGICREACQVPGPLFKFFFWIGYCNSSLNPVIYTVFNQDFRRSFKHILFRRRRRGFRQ

The target of experiment [3] is T2, human α2B adrenergic receptor (human, UniProt P18089 1-450).
T2 sequence (looked up): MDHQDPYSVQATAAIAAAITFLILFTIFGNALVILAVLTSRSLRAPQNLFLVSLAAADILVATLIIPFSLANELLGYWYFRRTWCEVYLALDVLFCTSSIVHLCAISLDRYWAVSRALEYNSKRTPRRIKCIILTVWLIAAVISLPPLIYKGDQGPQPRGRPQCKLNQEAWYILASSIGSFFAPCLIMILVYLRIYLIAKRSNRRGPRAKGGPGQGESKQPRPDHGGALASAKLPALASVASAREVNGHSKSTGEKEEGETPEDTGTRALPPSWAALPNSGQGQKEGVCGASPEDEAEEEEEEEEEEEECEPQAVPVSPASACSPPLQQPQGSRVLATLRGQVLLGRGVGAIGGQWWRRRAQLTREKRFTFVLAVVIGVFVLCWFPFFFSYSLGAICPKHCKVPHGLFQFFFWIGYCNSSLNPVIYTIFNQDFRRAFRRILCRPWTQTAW

The target in the next experiment is T3, human Y5 receptor (human, UniProt Q15761 1-445).
T3 sequence (looked up): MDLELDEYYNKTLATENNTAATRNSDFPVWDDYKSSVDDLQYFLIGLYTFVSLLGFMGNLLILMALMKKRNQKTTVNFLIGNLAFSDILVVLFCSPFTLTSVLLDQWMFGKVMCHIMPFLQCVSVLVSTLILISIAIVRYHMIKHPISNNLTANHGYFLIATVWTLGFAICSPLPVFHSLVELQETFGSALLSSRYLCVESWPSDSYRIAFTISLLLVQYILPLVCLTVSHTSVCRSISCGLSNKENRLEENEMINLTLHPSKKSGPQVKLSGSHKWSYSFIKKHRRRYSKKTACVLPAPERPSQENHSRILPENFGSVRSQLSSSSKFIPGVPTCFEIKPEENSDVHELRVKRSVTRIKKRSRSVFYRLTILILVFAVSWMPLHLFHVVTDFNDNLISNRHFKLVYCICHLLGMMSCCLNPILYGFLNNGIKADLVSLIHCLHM

For a further experiment, the target named is T4, human GALR2 receptor (human, UniProt O43603 1-387).
T4 sequence (looked up): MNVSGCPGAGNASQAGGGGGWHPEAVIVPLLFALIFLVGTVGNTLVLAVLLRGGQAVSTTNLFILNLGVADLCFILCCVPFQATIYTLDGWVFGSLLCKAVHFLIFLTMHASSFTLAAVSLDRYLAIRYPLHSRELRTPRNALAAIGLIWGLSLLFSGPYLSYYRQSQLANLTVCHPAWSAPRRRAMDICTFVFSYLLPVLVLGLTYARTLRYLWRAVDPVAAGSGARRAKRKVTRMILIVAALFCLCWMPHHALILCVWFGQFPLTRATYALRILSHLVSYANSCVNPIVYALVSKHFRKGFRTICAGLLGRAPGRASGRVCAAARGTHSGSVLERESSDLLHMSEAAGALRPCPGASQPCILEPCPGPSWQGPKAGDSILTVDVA

The target of experiment [4] is human kappa opioid receptor (human, UniProt P41145 1-380).
Experiment [5] deals with T5, human α2A adrenergic receptor (human, UniProt P08913 1-465).
T5 sequence (looked up): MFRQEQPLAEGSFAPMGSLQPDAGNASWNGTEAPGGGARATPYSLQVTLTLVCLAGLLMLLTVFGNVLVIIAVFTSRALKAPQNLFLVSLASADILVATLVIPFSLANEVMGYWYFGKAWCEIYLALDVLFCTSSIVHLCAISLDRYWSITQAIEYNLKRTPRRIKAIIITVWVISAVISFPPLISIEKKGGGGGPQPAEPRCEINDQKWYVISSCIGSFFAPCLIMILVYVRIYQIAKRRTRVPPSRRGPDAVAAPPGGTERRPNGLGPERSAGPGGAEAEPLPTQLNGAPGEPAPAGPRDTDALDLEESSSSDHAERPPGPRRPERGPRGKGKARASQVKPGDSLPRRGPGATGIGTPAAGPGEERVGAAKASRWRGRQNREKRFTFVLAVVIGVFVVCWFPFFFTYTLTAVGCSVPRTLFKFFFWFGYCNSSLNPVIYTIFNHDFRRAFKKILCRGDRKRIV

Here are results for 3 molecules from US7067277 (H LUNDBECK A S, dated 2006).

human 5HT1D receptor, sequence (P28221 whole entry): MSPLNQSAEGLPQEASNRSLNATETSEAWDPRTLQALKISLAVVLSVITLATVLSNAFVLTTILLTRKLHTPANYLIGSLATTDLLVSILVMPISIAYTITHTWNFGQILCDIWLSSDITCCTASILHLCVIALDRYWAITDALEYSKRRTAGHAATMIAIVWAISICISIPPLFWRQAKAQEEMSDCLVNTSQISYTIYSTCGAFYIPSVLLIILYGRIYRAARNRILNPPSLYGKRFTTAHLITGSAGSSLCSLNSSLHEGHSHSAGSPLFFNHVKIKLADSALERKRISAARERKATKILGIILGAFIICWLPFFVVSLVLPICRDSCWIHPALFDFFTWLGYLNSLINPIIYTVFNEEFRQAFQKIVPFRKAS
mouse 5HT5B receptor, sequence (P31387 whole entry): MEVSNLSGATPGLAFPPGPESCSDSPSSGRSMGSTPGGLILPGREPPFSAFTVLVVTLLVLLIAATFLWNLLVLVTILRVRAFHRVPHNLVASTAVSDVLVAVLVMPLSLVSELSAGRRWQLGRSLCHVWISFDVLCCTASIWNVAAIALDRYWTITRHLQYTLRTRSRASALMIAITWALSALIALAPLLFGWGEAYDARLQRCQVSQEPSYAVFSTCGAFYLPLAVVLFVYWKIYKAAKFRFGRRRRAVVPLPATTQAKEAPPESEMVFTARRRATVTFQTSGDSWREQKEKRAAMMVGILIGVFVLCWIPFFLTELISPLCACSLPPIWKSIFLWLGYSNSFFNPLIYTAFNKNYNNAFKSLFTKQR
human 5HT4 receptor, sequence (Q13639 whole entry): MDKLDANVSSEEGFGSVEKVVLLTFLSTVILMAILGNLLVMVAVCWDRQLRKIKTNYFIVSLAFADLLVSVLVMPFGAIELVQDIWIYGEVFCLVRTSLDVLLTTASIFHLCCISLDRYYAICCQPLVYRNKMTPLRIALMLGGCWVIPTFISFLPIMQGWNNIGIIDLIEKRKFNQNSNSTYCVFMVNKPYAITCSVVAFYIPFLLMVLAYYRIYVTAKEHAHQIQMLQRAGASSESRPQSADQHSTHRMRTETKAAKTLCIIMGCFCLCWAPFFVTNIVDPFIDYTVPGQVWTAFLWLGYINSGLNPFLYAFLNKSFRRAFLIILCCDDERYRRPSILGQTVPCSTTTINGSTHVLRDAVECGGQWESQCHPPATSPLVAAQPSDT
human 5HT6 receptor, sequence (P50406 whole entry): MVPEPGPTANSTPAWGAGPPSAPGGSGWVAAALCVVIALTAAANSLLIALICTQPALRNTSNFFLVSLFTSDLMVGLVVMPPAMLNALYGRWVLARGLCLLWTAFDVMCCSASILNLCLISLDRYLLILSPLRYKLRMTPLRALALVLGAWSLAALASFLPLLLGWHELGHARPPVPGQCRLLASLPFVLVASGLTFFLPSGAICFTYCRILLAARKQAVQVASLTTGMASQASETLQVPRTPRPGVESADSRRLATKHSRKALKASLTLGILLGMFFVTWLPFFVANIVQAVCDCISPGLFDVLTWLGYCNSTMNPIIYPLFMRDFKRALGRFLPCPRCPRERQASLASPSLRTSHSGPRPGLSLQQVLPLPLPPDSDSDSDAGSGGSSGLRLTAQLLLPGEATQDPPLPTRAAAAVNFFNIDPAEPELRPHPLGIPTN
mouse 5HT5A receptor, sequence (P30966 whole entry): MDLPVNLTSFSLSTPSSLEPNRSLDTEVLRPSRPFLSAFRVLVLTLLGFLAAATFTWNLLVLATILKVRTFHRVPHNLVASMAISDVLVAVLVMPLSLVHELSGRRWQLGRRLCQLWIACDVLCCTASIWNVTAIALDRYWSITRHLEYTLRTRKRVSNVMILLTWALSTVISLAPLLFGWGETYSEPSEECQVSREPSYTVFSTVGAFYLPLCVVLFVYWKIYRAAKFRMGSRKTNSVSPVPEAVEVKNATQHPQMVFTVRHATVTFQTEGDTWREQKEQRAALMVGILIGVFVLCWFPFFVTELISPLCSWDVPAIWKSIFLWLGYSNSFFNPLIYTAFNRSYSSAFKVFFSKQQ
human MCH receptor, sequence (Q99705 whole entry): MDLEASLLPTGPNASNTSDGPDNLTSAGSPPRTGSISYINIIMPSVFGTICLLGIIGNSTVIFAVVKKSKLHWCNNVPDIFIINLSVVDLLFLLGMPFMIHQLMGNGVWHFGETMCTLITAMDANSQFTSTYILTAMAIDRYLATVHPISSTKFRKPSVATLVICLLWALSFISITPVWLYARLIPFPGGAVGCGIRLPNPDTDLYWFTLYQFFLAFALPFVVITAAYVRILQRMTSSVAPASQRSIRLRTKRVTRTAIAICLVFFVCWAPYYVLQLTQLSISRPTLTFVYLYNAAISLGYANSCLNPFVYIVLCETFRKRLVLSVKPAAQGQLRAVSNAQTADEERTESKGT
human kappa opioid receptor, sequence (P41145 whole entry): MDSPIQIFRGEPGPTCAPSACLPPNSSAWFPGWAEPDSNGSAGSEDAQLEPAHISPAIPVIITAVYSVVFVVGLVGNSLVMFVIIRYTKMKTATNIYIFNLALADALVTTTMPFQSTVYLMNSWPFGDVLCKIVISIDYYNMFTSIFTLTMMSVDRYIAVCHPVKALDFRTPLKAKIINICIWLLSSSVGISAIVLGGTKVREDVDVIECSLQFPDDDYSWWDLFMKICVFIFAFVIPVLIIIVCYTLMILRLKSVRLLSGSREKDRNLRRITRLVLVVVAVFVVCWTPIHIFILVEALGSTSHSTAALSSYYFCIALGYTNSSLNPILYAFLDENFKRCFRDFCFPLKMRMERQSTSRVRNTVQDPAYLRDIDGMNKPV
human 5HT1E receptor, sequence (P28566 whole entry): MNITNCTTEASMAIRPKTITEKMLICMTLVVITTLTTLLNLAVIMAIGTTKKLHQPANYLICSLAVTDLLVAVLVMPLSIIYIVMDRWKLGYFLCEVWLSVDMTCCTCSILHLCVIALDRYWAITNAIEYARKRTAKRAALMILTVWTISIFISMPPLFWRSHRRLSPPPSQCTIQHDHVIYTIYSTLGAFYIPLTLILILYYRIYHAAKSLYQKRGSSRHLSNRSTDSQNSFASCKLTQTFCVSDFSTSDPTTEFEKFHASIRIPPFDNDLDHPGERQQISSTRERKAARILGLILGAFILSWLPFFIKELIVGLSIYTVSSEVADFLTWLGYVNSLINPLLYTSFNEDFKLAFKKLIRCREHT
human Y4 receptor, sequence (P50391 whole entry): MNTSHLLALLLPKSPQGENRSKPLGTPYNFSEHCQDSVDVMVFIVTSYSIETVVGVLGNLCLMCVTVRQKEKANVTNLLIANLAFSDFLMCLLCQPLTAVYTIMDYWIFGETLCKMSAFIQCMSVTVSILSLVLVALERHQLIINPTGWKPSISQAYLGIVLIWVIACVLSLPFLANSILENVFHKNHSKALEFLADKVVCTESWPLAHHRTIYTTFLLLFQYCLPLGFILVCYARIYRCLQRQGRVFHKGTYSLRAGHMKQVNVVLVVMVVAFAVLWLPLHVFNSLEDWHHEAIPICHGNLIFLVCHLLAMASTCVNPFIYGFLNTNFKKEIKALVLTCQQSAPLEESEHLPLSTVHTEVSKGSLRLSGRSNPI
human dopamine D3 receptor, sequence (P35462 whole entry): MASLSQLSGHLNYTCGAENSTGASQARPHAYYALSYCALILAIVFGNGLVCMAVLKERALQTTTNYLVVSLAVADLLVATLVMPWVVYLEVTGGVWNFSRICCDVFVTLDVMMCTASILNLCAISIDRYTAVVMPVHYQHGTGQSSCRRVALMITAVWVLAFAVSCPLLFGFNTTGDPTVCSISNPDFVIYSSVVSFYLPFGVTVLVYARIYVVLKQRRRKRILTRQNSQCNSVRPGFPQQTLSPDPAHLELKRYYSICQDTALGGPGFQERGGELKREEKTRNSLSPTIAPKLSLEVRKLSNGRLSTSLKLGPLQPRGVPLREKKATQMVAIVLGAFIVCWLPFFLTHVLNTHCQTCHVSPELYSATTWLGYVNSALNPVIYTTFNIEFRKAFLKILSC

B1: C. elegans Gαq/z5 (other)
chain: MACCLSEEAREQKRINQEIEKQLQRDKRNARRELKLLLLGTGESGKSTFIKQMRIIHGQGYSEEDKRAHIRLVYQNVFMAIQSMIRAMDTLDIKFGNESEELQEKAAVVREVDFESVTSFEEPYVSYIKELWEDSGIQECYDRRREYQLTDSAKYYLSDLRRLAVPDYLPTEQDILRVRVPTTGIIEYPFDLEQIIFRMVDVGGQRSERRKWIHCFENVTSIMFLVALSEYDQVLVECDNENRMEESKALFRTIITYPWFTNSSVILFLNKKDLLEEKILYSHLADYFPEYDGPPRDPIAAREFILKMFVDLNPDADKIIYSHFTCATDTENIRFVFAAVKDTILQHNLKYIGLC
Take B1: the “max Ca2+ signal, COS-7, FLIPR; agonist DA” value (from here on “max Ca2+ signal … agonist DA”) in experiment [1] amounted to 0 fluorescence units. For the same molecule, the “max Ca2+ signal, COS-7, FLIPR; agonist 5HT” value (shortened to “max Ca2+ signal … agonist 5HT”) is 229 fluorescence units with human 5HT1E receptor; 265 fluorescence units in the experiment with mouse 5HT5B receptor; 351 fluorescence units with mouse 5HT5A receptor; 414 fluorescence units with human 5HT1D receptor; 1010 fluorescence units with human 5HT4 receptor; 1290 fluorescence units with human 5HT6 receptor. In addition, the “max Ca2+ signal, COS-7, FLIPR; agonist MCH” value (“max Ca2+ signal … agonist MCH” for short) in the experiment with human MCH receptor was 2700 fluorescence units. In addition, the “max Ca2+ signal, COS-7, FLIPR; agonist NE” value (“max Ca2+ signal … agonist NE” below) is 4140 fluorescence units in [2], 4980 fluorescence units in experiment [3] and 7580 fluorescence units in experiment [5]. Besides, the “max Ca2+ signal, COS-7, FLIPR; agonist NPY” value (from here on “max Ca2+ signal … agonist NPY”) in the experiment with human Y5 receptor came to 5310 fluorescence units. The “max Ca2+ signal, COS-7, FLIPR; agonist GAL” value (“max Ca2+ signal … agonist GAL” below) with human GALR2 receptor turned out to be 5470 fluorescence units. Also, the “max Ca2+ signal, COS-7, FLIPR; agonist U-69593” value in [4] was determined as 5980 fluorescence units. Besides, the “max Ca2+ signal, COS-7, FLIPR; agonist PP” value (shortened to “max Ca2+ signal … agonist PP”) with human Y4 receptor stood at 9420 fluorescence units.

B2: C. elegans Gαq/z9 (other)
chain: MACCLSEEAREQKRINQEIEKQLQRDKRNARRELKLLLLGTGESGKSTFIKQMRIIHGQGYSEEDKRAHIRLVYQNVFMAIQSMIRAMDTLDIKFGNESEELQEKAAVVREVDFESVTSFEEPYVSYIKELWEDSGIQECYDRRREYQLTDSAKYYLSDLRRLAVPDYLPTEQDILRVRVPTTGIIEYPFDLEQIIFRMVDVGGQRSERRKWIHCFENVTSIMFLVALSEYDQVLVECDNENRMEESKALFRTIITYPWFTNSSVILFLNKKDLLEEKILYSHLADYFPEYDGPPRDPIAAREFILKMFVDLNPDADKIIYSHFTCATDTENIRFVFAAVKDTILQNNLKYIGLC
On to B2, for which the “max Ca2+ signal … agonist DA” value in experiment [1] is 121 fluorescence units. In addition, the “max Ca2+ signal … agonist 5HT” value with human 5HT1E receptor worked out at 238 fluorescence units; with mouse 5HT5B receptor, 443 fluorescence units; in the experiment with mouse 5HT5A receptor, 270 fluorescence units; in the experiment with human 5HT1D receptor it was 504 fluorescence units; with human 5HT4 receptor, 1700 fluorescence units; with human 5HT6 receptor, 2290 fluorescence units. The “max Ca2+ signal … agonist MCH” value with human MCH receptor turned out to be 3330 fluorescence units. The “max Ca2+ signal … agonist NE” value in experiment [2] turned out to be 3870 fluorescence units; in [3], 5140 fluorescence units; in experiment [5], 3040 fluorescence units. Further, the “max Ca2+ signal … agonist NPY” value in the experiment with human Y5 receptor stood at 6680 fluorescence units. For the same molecule, in the experiment with human GALR2 receptor, the “max Ca2+ signal … agonist GAL” value turned out to be 4900 fluorescence units. In addition, the “max Ca2+ signal, COS-7, FLIPR; agonist U-69593” value in [4] worked out at 3470 fluorescence units. Moreover, the “max Ca2+ signal … agonist PP” value with human Y4 receptor was 7400 fluorescence units.

B3: Human Gαq/z5 (Ala→Ser substitution at position 171) (other)
chain: MTLESIMACCLSEEAKEARRINDEIERQLRRDKRDARRELKLLLLGTGESGKSTFIKQMRIIHGSGYSDEDKRGFTKLVYQNIFTAMQAMIRAMDTLKIPYKYEHNKAHAQLVREVDVEKVSAFENPYVDAIKSLWNDPGIQECYDRRREYQLSDSTKYYLNDLDRVADPSYLPTQQDVLRVRVPTTGIIEYPFDLQSVIFRMVDVGGQRSERRKWIHCFENVTSIMFLVALSEYDQVLVESDNENRMEESKALFRTIITYPWFQNSSVILFLNKKDLLEEKIMYSHLVDYFPEYDGPQRDAQAAREFILKMFVDLNPDSDKIIYSHFTCATDTENIRFVFAAVKDTILQLNLKYIGLC
As for B3, the “max Ca2+ signal … agonist DA” value in experiment [1] came to 0 fluorescence units. In addition, the “max Ca2+ signal … agonist 5HT” value with human 5HT1E receptor stood at 202 fluorescence units; with mouse 5HT5B receptor it was 251 fluorescence units; in the experiment with mouse 5HT5A receptor, 0 fluorescence units; with human 5HT1D receptor it was 316 fluorescence units; in the experiment with human 5HT4 receptor, 2160 fluorescence units; with human 5HT6 receptor, 210 fluorescence units. Besides, the “max Ca2+ signal … agonist MCH” value with human MCH receptor came out at 783 fluorescence units. Also, the “max Ca2+ signal … agonist NE” value in experiment [2] stood at 6110 fluorescence units; in [3], 4520 fluorescence units; in experiment [5], 10900 fluorescence units. For the same molecule, in the experiment with human Y5 receptor, the “max Ca2+ signal … agonist NPY” value is 6410 fluorescence units. Moreover, the “max Ca2+ signal … agonist GAL” value with human GALR2 receptor turned out to be 5990 fluorescence units. In addition, in experiment [4], the “max Ca2+ signal, COS-7, FLIPR; agonist U-69593” value came to 7860 fluorescence units. For the same molecule, the “max Ca2+ signal … agonist PP” value with human Y4 receptor came out at 9970 fluorescence units.
